How the values were obtained:
DRH-3 full length [1] = molecular target: T1, DRH-3 full length (Caenorhabditis elegans, UniProt Q93413 1-1119); assay: size-exclusion chromatography
T1 sequence: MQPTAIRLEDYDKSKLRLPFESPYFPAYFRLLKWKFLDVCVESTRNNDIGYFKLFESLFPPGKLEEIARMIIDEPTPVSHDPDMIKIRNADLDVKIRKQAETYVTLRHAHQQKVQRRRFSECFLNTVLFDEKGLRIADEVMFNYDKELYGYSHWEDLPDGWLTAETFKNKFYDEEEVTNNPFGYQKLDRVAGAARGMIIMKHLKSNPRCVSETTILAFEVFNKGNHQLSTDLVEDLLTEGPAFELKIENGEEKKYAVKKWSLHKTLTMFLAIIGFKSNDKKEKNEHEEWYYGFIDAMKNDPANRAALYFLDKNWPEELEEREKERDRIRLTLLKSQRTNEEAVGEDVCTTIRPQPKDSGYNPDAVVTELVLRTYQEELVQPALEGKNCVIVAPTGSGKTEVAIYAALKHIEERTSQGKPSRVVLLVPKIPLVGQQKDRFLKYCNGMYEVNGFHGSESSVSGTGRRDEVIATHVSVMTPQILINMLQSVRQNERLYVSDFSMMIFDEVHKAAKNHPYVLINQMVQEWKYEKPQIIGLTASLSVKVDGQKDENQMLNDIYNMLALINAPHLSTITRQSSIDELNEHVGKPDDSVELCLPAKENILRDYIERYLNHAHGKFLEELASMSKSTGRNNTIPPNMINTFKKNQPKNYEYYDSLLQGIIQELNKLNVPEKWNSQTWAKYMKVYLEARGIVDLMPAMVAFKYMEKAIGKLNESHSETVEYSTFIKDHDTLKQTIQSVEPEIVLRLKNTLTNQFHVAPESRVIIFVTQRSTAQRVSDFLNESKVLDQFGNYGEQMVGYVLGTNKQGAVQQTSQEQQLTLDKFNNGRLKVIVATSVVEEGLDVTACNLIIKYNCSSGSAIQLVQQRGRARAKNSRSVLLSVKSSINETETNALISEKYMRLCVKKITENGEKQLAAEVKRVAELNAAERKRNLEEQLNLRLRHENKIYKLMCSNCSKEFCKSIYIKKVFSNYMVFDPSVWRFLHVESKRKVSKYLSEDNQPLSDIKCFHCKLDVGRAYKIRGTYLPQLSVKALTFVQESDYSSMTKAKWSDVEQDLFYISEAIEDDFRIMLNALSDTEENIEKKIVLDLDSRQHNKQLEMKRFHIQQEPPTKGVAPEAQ

DRH-3 full length [2] = molecular target: T1, DRH-3 full length; assay: HDX-MS
DRH-3 CTD = molecular target: T2, DRH-3 CTD (Caenorhabditis elegans, UniProt Q93413 940-1108); assay: crystal structure
T2 sequence: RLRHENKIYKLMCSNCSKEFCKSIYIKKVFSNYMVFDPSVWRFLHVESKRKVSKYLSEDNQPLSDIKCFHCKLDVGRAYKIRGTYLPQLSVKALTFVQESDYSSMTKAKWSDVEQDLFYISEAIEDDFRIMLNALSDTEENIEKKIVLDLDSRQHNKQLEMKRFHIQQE

RIG-I CTD = molecular target: T3, RIG-I CTD (human, UniProt O95786 802-925); assay: limited proteolysis
T3 sequence: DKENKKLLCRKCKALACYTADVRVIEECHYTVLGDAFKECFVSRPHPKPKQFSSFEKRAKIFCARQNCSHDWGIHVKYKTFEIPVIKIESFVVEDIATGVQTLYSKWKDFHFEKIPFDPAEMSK

DRH-1 CTD = molecular target: T4, DRH-1 CTD (Caenorhabditis elegans, UniProt G5EDI8 877-1006); assay: limited proteolysis
T4 sequence: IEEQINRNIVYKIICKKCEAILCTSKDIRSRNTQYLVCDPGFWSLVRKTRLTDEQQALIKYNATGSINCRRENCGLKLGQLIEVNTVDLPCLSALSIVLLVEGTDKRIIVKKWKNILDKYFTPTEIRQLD

DRH-3 full length [3] = molecular target: T1, DRH-3 full length; assay: size-exclusion chromatography; remark: listed apart in the source

B1: Hairpin 30 (structured_RNA)
RNA: GGACGUACGUACGUGCACGUACGUACGUGCUUCGGCACGUACGUACGUGCACGUACGUACGUCC
modifications: 5'-triphosphate
- binding result (DRH-3 full length [1]): binds

B2: 3p10L (SLR10) (structured_RNA)
RNA: GGACGUACGUUUCGACGUACGUCC
modifications: 5'-triphosphate
- binding result (DRH-3 full length [2]): binds

B3: 8-nt ssRNA (ssRNA)
RNA: GGCCGCCC
modifications: 5'-triphosphate
- binding result (DRH-3 CTD): binds

B4: R1 / 12-mer 5'-ppp dsRNA (dsRNA)
RNA 1: GGCGCGCGCGCC
RNA 2: GGCGCGCGCGCC
modifications: 5'-triphosphate on both strands
- binding result (RIG-I CTD): binds
- binding result (DRH-1 CTD): binds
- binding result (DRH-3 CTD): binds

B5: GC30 (30-bp dsRNA) (dsRNA)
RNA 1: GGCGCGCGCGCGCGCGCGCGCGCGCGCGCGCC
RNA 2: GGCGCGCGCGCGCGCGCGCGCGCGCGCGCGCC
modifications: 5'-triphosphate on both strands
- binding result (DRH-3 full length [3]): binds

Reference: paper PMC8464030
